20 sequences from the DeepSol protein solubility set can be followed below.

The series can be described thus: soluble on expression in E. coli; label from the status in PepcDB or PDB records.
For the sequence “MGSDKIHHHHHHMTNAAKTGVERTYEYKERINGILGMMEQAPAEQRNPVLEGLLRLIMETNERTIDCAENGKPFVSTWYGNAPEILTAMDIHFIVPVFDILLHEYFTDLYDVKEADKISLPDDICSLIRFGAYAIENKLLPRPTAIISMLEPCDAELMLHQYYQSSEHWGGVPTFGLDPAYGSTDEDFMYFAGELKRLIHFLVEITGQKYDVDKLRKVVAETNTQYELWAEYNELRRVTPCPHGSFQGSVPLWTLTQFISSGDPRATELIRMMIMDAEAKVKAGIGAVPNEQIRILWADLAPQWGDLLAPWLAEEWGANVVMDYQGYSPYTHIDTTSEDTMLYGLARRALHEVPMIRQGRGTVEVMIEDMTRIIKDYTINCVFWPGHMGHKDVSGSVHFMQELCRSLNVPLLCLTTSLFDERYTPLDKVKQQMSEFFEATGWSKNSST”, the “soluble on expression in E. coli” value was “not soluble”. Then “MRASPTSPPEQVVVDASAMVDLLARTSDRCSAVRARLARTAMHAPAHFDAEVLSALGRMQRAGALTVAYVDAALEELRQVPVTRHGLSSLLAGAWSRRDTLRLTDALYVELAETAGLVLLTTDERLARAWPSAHAIG”, with “soluble”. As for “MGSDKIHHHHHHMSNQHSWALSMNQIENCSCSHGCGCQFGGFPTSKDGGCEAILGFEILKGHFNDLDLSGLKMVFAAAWPSAMHEGNGKGALFIDNSANEEQVGALATIMSGQAGGMPVEVLGTLFSEFDGPIMADIKLNRQDYTSTVTIEGIIEVEQEPHINPVTGEINEVHISFPKGGFMWNDGFAGKTKLMKINHGNMAFSYSDTFAANAVVNWPNA”, the “soluble on expression in E. coli” value is on record as “not soluble”. On to “EAISLSFEQRGQRRAILRDLSLGLAKGESLVVLGPSGCGKSTLLNILAGFQKPDQGRVQIDGRTLEGPGGERGVVFQDDALMPWLNALDNVALGLRIRGLGKAERTARARQVLQLVGLQEYAEQSVAQLSGGQRQRLGLARALAVEPDFLLLDEPFGALDALTRERMQVLLLDLWKQTGKGLFLITHSVDEALFLATDLVVMDGPPARIVKRLPVDFARRYAAGETVRSIKADPEFGRLRQALLDEFLDVAEA”, for which the “soluble on expression in E. coli” value is given as “not soluble”. Then “MGSDKIHHHHHHMAHHAAPPINTTKFPIDRWWVAALSSELTDKPVARTLLGRPVVLFRLPSGEVGALEDRCCHKSLPLSCGSLEVRGLRCGYHGLLFDRDGACVEIPGQDRIPAKACVASYPVREQDAIVWIWIGAEAHAEPTCAPPRYPFHSDPQYRFGGGHYHYDAPYQLIHDNLMDLSHLGYVHLKTIGGNASLHMGAETRVSTDGDTVTLVRRMPDSEPPPTYTAAWPFAGRVDRWQEIEFHVSHIRIWTGAMDAGTGDLHDPARGGFHMRGFHGITPETETTTHYFWTVATNPQHDIERVARTVIEQSAATFDEDKTVIEAQYRNQLRFPDRRQIDIHVDAGPNRARRVIERLLLQPEPA”, with “not soluble”; and “MGSDKIHHHHHHMVIHKETMRSANEKSVLQRIFTEGPISKSQVARDVSLNKVTVSQIINKFISSRLVVEAGSGDSTQQGGRKPELVQINSKYGYVVCIDLGYQELSVLSMSINGQKLDSRHTIFGNDDINIAIEKIYEILVEFQEMHKERLLGLLVSIHGIVHKNQVIYSPFWNMKQIDLADTLSKKFDIPVILENEANLTATFERDYSVNEIQNAVSISMHKGIGAGIIIDGELYRGRKGEAGEIGQTVAFESENQSLEKSNKIEDVCSPQVILARIKNAKKLEYINWQLVRQMFDDKDQETLEILKEFENNVAKIINNVIVSFDPDVLVVNAYIFKEFPEILERISNGFAHVSVRNTPIVLSENVKNASLYGGCAQMIRTILGVSKLKLQYKK”, with “not soluble”; and “MSLDRYLGFANSNLGRRLVDALGLPRPAPLERWQAGRLRPVEGALVLGGGPLAKQVEAIAPRLTDEVYSFNADNLQAEAWVAGLGPKIKAVVFDASHLSDSDALKQLREFFQPLLRSLAPCAHVLVLGRAPEGLDDPLASVAQRALEGFSRSLAKELRNGATAQLLYVAPGAEDQLEGALRFFLSPKSAFISGQVLRLQGCTSQVEDWTRPLGGRRALVTGAARGIGAAIAETLARDGADVLLLDVPQASKDLDALAARLGGKALPLDICASDAATQLLAALPDGIDIVVHNAGITRDKTLVNMTPEYWDAVLAVNLKAPQVLTQALYDNGALGENARITLLASVSGIAGNRGQANYAASKAGLIGLAQAWAPRLAERGGSINAIAPGFIETHMTAAMPMGLREAGRRLSSLGQGGSPQDVAEAIAWLSQPGSGSVNGQVLRVCGQALMGAEGHHHHHH”, with “soluble”. “SNAGLIDESEQRLVDNIFEFEEKKIREIMVPRTDMVCIYESDSEEKILAILKEEGVTRYPVCRKNKDDILGFVHIRDLYNQKINENKIELEEILRDIIYISENLTIDKALERIRKEKLQLAIVVDEYGGTSGVVTIEDILEEIVGEIQ”: the “soluble on expression in E. coli” value is on record as “soluble”. Turning to “MGFYQGPDNRKITGGLKGKHRDKRKYEIGNPPTFTTLSAEDIRIKDRTLGGNFKVRLKYTTTANVLDPATNTAKKVKILEILETPANKELARRGIIIRGAKIRTEAGLAVVTSRPGQDGVINAVLLKNESQRS”, the “soluble on expression in E. coli” value is given as “soluble”.

On to “MSLTTLNIGLILPDVLGTYGDDGNALVLRQRARMRGINAEIQRVTLDDAVPSTLDLYCLGGGEDTAQILATEHLTKDGGLQTAAAAGRPIFAVCAGLQVLGDSFRAAGRVIDGLGLIDATTVSLQKRAIGEVETTPTRAGFTAELTERLTGFENHMGATLLGPDAEPLGRVVRGEGNTDVWAASENTDDQRQQFAEGAVQGSIIATYMHGPALARNPQLADLMLAKAMGVALKEGHHHHHH”, for which the “soluble on expression in E. coli” value was “not soluble”.

For “MKIAAIYTQSVGPLPDGEIRFENDWSGEIESNVLITGPNGCGKSTLLRAISLLWRAFGHWLGTGTRLNIKDESYTWFYRWDASCAMILDSFSPKSEDQIGLFLGSEAFLVQLKEKYPQVYWLGETVSRTKGTTPETTVFTSSEHFFLPYKNWWSHWSSQYQRLVLKGPSVDMPNLVYLDAEARRWVRPQKDIGSLSPDDSTQAWLATYEVNDNWKGQLESSLFNMKATMPGEYPEMIATLNQFFSGKRIEAEIHPGQRQRVLLDSGNDHSLDALSSGEHQVLIMLFTVQRWLQPGGVVLIDEPDLHLHPSLISPLLASIENIVARKNGQLVMTSHATDIWQRYDNMGLRIDLTDGKDAENGQRLEHHHHHH”, the “soluble on expression in E. coli” value is recorded as “soluble”. For “IKVILITGMPGSGKSEFAKLLKERGAKVIVMSDVVRKRYSIEAKPGERLMDFAKRLREIYGDGVVARLCVEELGTSNHDLVVFDGVRSLAEVEEFKRLLGDSVYIVAVHSPPKIRYKRMIERLRSDDSKEISELIRRDREELKLGIGEVIAMADYIITNDSNYEEFKRRCEEVTDRVLK”, the “soluble on expression in E. coli” value is on record as “soluble”. For “MVVFNGLLKIKICEAVSLKPTAWSLRDAVGPRPQTFLLDPYIALNVDDSRIGQTATKQKTNSPAWHDEFVTDVCNGRKIELAVFHDAPIGYDDFVANCTIQFEELLQNGSRHFEDWIDLEPEGKVYVIIDLSGSSG”, the “soluble on expression in E. coli” value is “soluble”. In the case of “MAKEKKRGFFSWLGFGQKEQTPEKETEVQNEQPVVEEIVQAQEPVKASEQAVEEQPQAHTEAEAETFAADVVEVTEQVAESEKAQPEAEVVAQPEPVVEETPEPVAIEREELPLPEDVNAEAVSPEEWQAEAETVEIVEAAEEEAAKEEITDEELETALAAEAAEEAVMVVPPAEEEQPVEEIAQEQEKPTKEGFFARLKRSLLKTKENLGSGFISLFRGKKIDDDLFEELEEQLLIADVGVETTRKIITNLTEGASRKQLRDAEALYGLLKEEMGEILAKVDEPLNVEGKAPFVILMVGVNGVGKTTTIGKLARQFEQQGKSVMLAAGDTFRAAAVEQLQVWGQRNNIPVIAQHTGADSASVIFDAIQAAKARNIDVLIADTAGRLQNKSHLMEELKKIVRVMKKLDVEAPHEVMLTIDASTGQNAVSQAKLFHEAVGLTGITLTKLDGTAKGGVIFSVADQFGIPIRYIGVGERIEDLRPFKADDFIEALFARED”, the “soluble on expression in E. coli” value was “soluble”. For “SLKNRRVGKKLLMTGGGRCNVTNNRPAEEIISFIPGNGKFLYSAFSQFDNYDIMNFFESNGIHLKEEDHGRMFPVTDKSKSIVDALFNRINELGVTVFTKTQVTKLLRKDDQIIGVETELEKIYAPCVVLTTGGRTYPSTGATGDGYKLAKKMGHTISPLYPTESPIISEEPFILDKTLQGLSLQDVNLTVLNQKGKPLVNHQMDMLFTHFGISGPAALRCSSFINQELTRNGNQPVTVALDVFPTKSFEEVPAKQLTEKQRLSFVELLKDFQFTVTKTLPLEKSFVTGGGISLKEVTPKTMESKLVNGLFFAGELLDINGYTGGYNVTAAFVTGHVAGSHAAEIAEYTYLPIEEV”, the “soluble on expression in E. coli” value is “soluble”. The value for “MQFQRARSDKQKNIRMSEIVNATINLYESLQYDKITLALIAKQLSFSRANLYKYVSTKEEIFLLIISGDIENWSKEVVKFFDKYDALSAEEFCKLWSELLYRHKRIIELFCILNTIIARNVSAEKLAAFKKQIHKDFTRTKKVVKRFFPFMSKEQLKFFIEYQMKYAVGVYPATIINDVQKKASELSGIPSNVKDFESSFSKFLMVILNGIEITI” was “not soluble”; that for “GPGSMPSKEASSRNLPISGRDTNGKTYRSTDEMWKAELTGDLYDPEKGWYGKALEYWRTVPATVSGVLGGMDHVHDVDIEGSRNFIASLPGHGTSRALDCGAGIGRITKNLLTKLYATTDLLEPVKHMLEEAKRELAGMPVGKFILASMETATLPPNTYDLIVIQWTAIYLTDADFVKFFKHCQQALTPNGYIFFKENCSTGDRFLVDKEDSSLTRSDIHYKRLFNESGVRVVKEAFQEEWPTDLFPLKMYALK” was “soluble”. The value for “MSEVEKTYCGFIAIVGRPNVGKSTLLNELLGQKISITSRKPQTTRHRIMGIHTEGPYQAIYVDTPGLHIEEKRAINRLMNRAASSSLGDVELVIFVVEGTHWTADDEMVVNKLRSLQCPVLLAINKVDNVTDKTKLLPHMQFLSQQMNFLDVVPISAEKGMNVDTIASIVRKHMPEAEHHFPEDYITDRSQRFMASEIIREKLMRFLGEELPYSVTVEIEQFVPNERGGYNIHGLILVEREGQKKMVIGNKGSKIKVIGTEARQDMERMFEAKVHLELWVKVKSGWADDERALRSLGYTDDLK” was “not soluble”. Turning to “MSDALTLTAAKKNARNRIRAARLARSTADLHADNAAILNQLTALIRTINATRAAAYMPEVTEPGGVDFADNLTGILSELWIPKSLPNRQLVWGHYSGGDSVERGTFGILEPTTPSRSSDILHDVDLIIVPALGITPSGRRLGQGAGYYDRALAGVATPTVAILFDSEVNTTIPFEPHDATCDWIITPEGTKQVT”, the “soluble on expression in E. coli” value is recorded as “not soluble”. The value for “MNQKLLKLENLLRFHTICRQVHSPSQRRLLAWCRHGFAPASSVWRDLLGARSWQTDMLIGSALHQHRLLVTKKEKRPPRSQLSPVKTKKEVEVWVGMTVEDLASAMAKDIDCVYEALLNTAIDVDSLEANSHLDEVWIKEVIKKAGMKLKWSKLKQERIRENKDAVRRPGTDPALLKPRSPVVTVMGHVDHGKTTLLDKLRETQVAAMEVGGITQHIGAFLVSLPSGEKITFLDTPGHAAFSAMRARGAQVTDIVVLVVAADDGVMKQTVESIQHAKDAEVPIILAINKCDKTDADPEKVKKELLAYDVVCEEYGGDVQAVHVSALTGDNLMALAEATIALAEILELKADPTGPVEGTVIESFTDKGRGPVTTAIIQRGTLRKGSILVAGKSWAKVRLIFDENGKILNEAYPSMPVGIIGWRDLPSAGDEILEVESEPRAREVIEWRKSEQKEEKGKDDLKIMEEKRREHQEAHRKAREKYGSLHWKERSYIKFLERKQQRPLKPKEKVERQSNVLPIIIKGDVDGSVEAILNLLDTYDASHECELELVHFGLGDISENDVTFAETFDGVIYGFNVEAGSAIQQSAAQKGVKIKLHKIIYHLIEDLQEELSSRLPHTLEEYPIGEASILATFTVTEGKKKIPVADCRVQKGQLERHKKFKLIRNGQVIWKGSLTSLKHHKDDISVIKTGMDCGLSLDEEKVEFKPGDQVICYEENKVPTKTSWDPGF” was “soluble”.
